The source of these data is patent US20150301046A1 (published 2015).

Test [1] has as its target T1, CD4 (cell surface receptor molecule on PBMCs) (human, UniProt P01730 26-458).
T1 construct: whole, on cells; also called CD4 receptor molecule
Put plainly: flow cytometry on PBMCs, Fab multimerized on Strep-Tactin PE. As for the experimental part: For staining of a CD4 receptor molecule specific target cell population in a mixture of cells, Strep-Tactin® labeled with phycoerythrine as a fluorescent label (IBA GmbH, Göttingen, Germany) was used as multimerization reagent together with the monomeric CD4 binding Fab-One-STrEP fragment of the variants of the antibody 13B8.2 (that served as receptor binding reagent) as described below. For FACS analysis 5×10⁶ PBMCs were incubated with Fab multimers consisting of 0.2 μg Fab-fragment (comprising binding site B) equipped with the One-STrEP-tag (binding partner C) as receptor binding reagent and 0.75 μg Strep-Tactin® PE (IBA GmbH, Göttingen, Germany) as multimerization reagent using the protocol below. In addition, after FACS separation, the multivalent complexes were disrupted in a portion of each of the stained cells by addition of biotin as described below. […]
For staining and dissociation experiments, 5×10⁶ PBMCs were incubated with the respective anti-CD4 Fab-multimer-Strep-Tactin® PE complexes or with the corresponding Fab-monomers (the latter not complexed with Strep-Tactin® PE). […] As expected from the monomer staining experiments, no remaining Fab monomers could be detected for mutants 2, 3 and 4, whereas substantial residual cell surface bound Fab of the wild-type and mutant 1 variants was observed.
A general note: In flow cytometry, cells or beads pass a laser one at a time.

Test [2] addresses T1, CD4 (cell surface receptor molecule on …). Put plainly: flow cytometry on PBMCs, Fab multimerized on Strep-Tactin PE (before the Western blot experiment). The procedure: CD4 Fab-multimers were generated with the different anti-CD4 Fab-mutants listed in Table 1 and further specified in FIG. 2 and Strep-Tactin® PE (IBA GmbH, Göttingen, Germany). PBMCs were incubated with the different CD4 Fab-multimers and consistent cell staining in each sample was verified by flow cytometry (solid line compared to the tinted histogram representing unstained cells). Then, cells were treated with D-biotin and subsequently washed. Finally, washed cells were lysed, and the soluble (S) and insoluble (I) fractions were analyzed for remaining Fab-monomers using highly specific anti-Strep-Tag® antibodies (StrepMAB-Classic Horse Radish Peroxidase (HRP) conjugate; IBA GmbH, Göttingen, Germany). To control application of consistent amounts of insoluble cell material, β-actin was detected simultaneously with a primary antibody against β-actin from rabbit (Santa Cruz Biotechnology Inc., Santa Cruz, USA) and a secondary antibody against rabbit Ig (immunoglobulin) conjugated to HRP (Sigma, St. Louis, USA). […]

B1: 13B8.2 Fab fragment (Fab, V domains shown)
VH: QVQLKQSGPGLVQPSQSLSITCTVSGFSLTTFGVHWVRQSPGKGLEWLGVIWRSGITDYNVPFMSRLSITKDNSKSQVFFKLNSLQPDDTAIYYCAKNDPGTGFAYWGQGTLVTVSA
VL: DIQMTQSPASLSASVGETVTFTCRASEMIYSYLAWYQQKQGKSPQLLVHDAKTLAEGVPSRFSGGGSGTQFSLKINTLQPEDFGTYYCQHHYGNPPTFGGGTKLEIKR
notes: Chimeric Fab expressed in the periplasm of E. coli; In the staining it was used as a monomer or multimerized on Strep-Tactin PE; also called CD4 wt (13B8.2); 13B8.2 wildtype (wt) Fab fragment
As for B1, the binding result in test [1] is given as “binds”.

B2: mutant 13B8.2 Fab fragment, CD4 mutant 2 (Y92A) (Fab, V domains shown)
VH: QVQLKQSGPGLVQPSQSLSITCTVSGFSLTTFGVHWVRQSPGKGLEWLGVIWRSGITDYNVPFMSRLSITKDNSKSQVFFKLNSLQPDDTAIYYCAKNDPGTGFAYWGQGTLVTVSA
VL: DIQMTQSPASLSASVGETVTFTCRASEMIYSYLAWYQQKQGKSPQLLVHDAKTLAEGVPSRFSGGGSGTQFSLKINTLQPEDFGTYYCQHHAGNPPTFGGGTKLEIKR
notes: also called Fab mutant 2; Y92-L
As for B2, the binding result in test [2] is given as “binds”.

B3: mutant 13B8.2 Fab fragment, CD4 mutant 3 (H35A) (Fab, V domains shown)
VH: QVQLKQSGPGLVQPSQSLSITCTVSGFSLTTFGVAWVRQSPGKGLEWLGVIWRSGITDYNVPFMSRLSITKDNSKSQVFFKLNSLQPDDTAIYYCAKNDPGTGFAYWGQGTLVTVSA
VL: DIQMTQSPASLSASVGETVTFTCRASEMIYSYLAWYQQKQGKSPQLLVHDAKTLAEGVPSRFSGGGSGTQFSLKINTLQPEDFGTYYCQHHYGNPPTFGGGTKLEIKR
notes: also called Fab mutant 3; H35-H
Consider B3, for which the binding result in test [2] is listed as “binds”.

B4: mutant 13B8.2 Fab fragment, CD4 mutant 1 (F100A) (Fab, V domains shown)
VH: QVQLKQSGPGLVQPSQSLSITCTVSGFSLTTFGVHWVRQSPGKGLEWLGVIWRSGITDYNVPFMSRLSITKDNSKSQVFFKLNSLQPDDTAIYYCAKNDPGTGAAYWGQGTLVTVSA
VL: DIQMTQSPASLSASVGETVTFTCRASEMIYSYLAWYQQKQGKSPQLLVHDAKTLAEGVPSRFSGGGSGTQFSLKINTLQPEDFGTYYCQHHYGNPPTFGGGTKLEIKR
notes: also called Fab mutant 1; F100K-H
Take B4: in test [1], the binding result is given as “binds”.
